Laboratory results as given in a protein production outcome set (Wang et al. 2014).

Test: label from the status in PepcDB records

## MDDERTVRSEVHVVVEDGEIVAIEDGYASGDEVVDATEEVVIPGLVNCHTHMYALPIRGAPLAASPESFYEALVDIWWNVDEAFTERDARLSALGSSVEMLQSGVTTFCDNYSGPNTLPGGLDAVAEGVAQTPIRGMITFETTARNSEAQARDGIAENQRFIDEAEDQYDTVSGHYCLHTLFTNTEDIVAECVDRATDDNRPIQIHLEEGLVDVHESIADYGERPVFALEDMGFFDAEVIAAHCVHSTESEIEVLAEHDVNVAHNPYSNINNAVGIADVETMQAHEMTIGLGDDGWDPDMFETMRSAVGIHKLKQRNPSGFDMATALEWATIGSAAVLGMDDAVGSIEVGKRGDFVTLDLGPNPVLDGSAPYYVVSAASRADVTRTIIDGESVYDQQSGVTGVDDSDMTAVGDASAELWERL
  protein production: failed

## MDDIRCAIIIDPDLPPGVIANTAAVLAMSLGKRHPELVGQDLPDARGQPRQGITTVPIPVLKGGADQLRALRAAASETGLTLVELTSATRFTRSYQEYAAALAATPEEMVEYQGLALCGPGKRVRQLTGSLGLLRLEHHHHHH
  protein production: failed

## MDDLASQSFPEPERAIMKATYQVLCEYGYADLTIQQIADEYGKTTTAVHYHCDTKNKLLTAFLDYLLEELADSVHNIRTTNPENRLKFLLDELLVKSKNEPVLSIALLEMQSQTPYKEPFRERFKQMAVVNRQTELDFTVSETA
  protein production: failed

## MDDLIRLLEEMGIPFAYDHFAEGESPDPPFICYLLPQSDNFSADGKVYLKVSSVNIELYTDCKDLSVEQKLEAVLDTHGIFYDKTKVWIESEKLYEVLYSFEMEVLEHHHHHH
  protein production: failed

## MDDQGCPRCKTTKYRNPSLKLMVNVCGHTLCESCVDLLFVRGAGNCPECGTPLRKSNFRVQLFEDPTVDKEVEIRKKVLKIYNKREEDFPSLREYNDFLEEVEEIVFNLTNNVDLDNTKKKMEIYQKENKDVIQKNKLKLTREQEELEEALEVERQENEQRRLFIQKEEQLQQILKRKNKQAFLDELESSDLPVALLLAQHKDRSTQLEMQLEKPKPVKPVTFSTGIKMGQHISLAPIHKLEEALYEYQPLQIETYGPHVPELEMLGRLGYLNHVRAASPQDLAGGYTSSLACHRALQDAFSGLFWQPS
  protein production: not failed

## MDDVGRYQCLAVNEMGTVKKVVTVVLQSAPVFQVEPRDVTVRSGVDVELRCRATGEPVPTIEWLRAGRPLQAGRKLRALPDGSLWLEHVEAGDAGVYECVAHNRLGSVTAKALLAVRGEPRGSRGSMTGVINGQEFGMATLNISVLQQGSSEAPTIWSSISHVPASVGPLMRVLVVTIAPIYWALARESGEALNGYSLTGGSFQQESQMEFSTGELLTMTQVARGLDPDGLLLVDMKINGMIPESLADGDLRVQDFQEHYVQTGPGQLFAGSTQRFLHDSLPASLRCNHSIQYDETRGLQPQLVQHLRASSISSAFDPEAEALNFQLTTALQTEENEVGCPEGFEPDVQGAFCVDKDECSGGPSPCSHTCRNAPGHFSCSCPTGFSLAWDHRNCRDVDECAGDTHLCQEEQRCVNLLGSYNCLASCRPGFRVTADGSNCEDVDECLEQLDECHYNQLCENTPGGHHCGCPRGYRQQGHSLPCLDINECLQLPTPCVYQCQNLQGSYRCLCPPGQTLLRDGRTCIPLERNRQNITIVSHRSPFGPWLRSRVPRPSSSYHTWVSLRPGSGALNSVGRAWCPPGFIRQDGVCADLDECRVRSLCQHACQNTEGSYYCLCPSGYRLLPSGKNCQDINECEEDGIECGPGQMCFNTRGSFQCVDTPCPTTYRQGSSPGTCFRRCSQDCSASGPSTLQYRLLPLPLGVRAHHDVARLAAFSEAGIPANRTELTVLEPDPRSPFALRQLRAGQGAVYTRRALTRAGLYRLTVRAAAPRHQSVYILLIAVSPYPY
  protein production: failed

## MDDWRRFAQQMASLARDLLSQESLHDTLDRITASATELVEDCDAAGILILRGTKVQSLAPTEQVVIDSDALQGRVGEGPCFDAARSGTGERQFRIADFTDEAQRWPKYVPEARKLNLGSMMGFLLFTEDEDLGALNMYSYRPGAFTEADETAGWLLASHAAVAFSSARTHAQMQEAIGTRHIIGEAMGILMGRHRMSEDQAFAALRRYSQDHNVKLRNVAAQVCERGGLPEPTDKR
  protein production: failed

## MDDYSLDEFRRRWQEELAQAQAPKKRRRPEAAERRARRPEVGSGRSEQASGDPALAQGLLEGAGRPPAARATRAEGQDVASRSRSPLAREGAGGGEQLVDQLIRDLNEMNDVPFFDIQLPYELAINIFQYLDRKELGRCAQVSKTWKVIAEDEVLWYRLCQQEGHLPDSSISDYSCWKLIFQECRAKEHMLQTNWKNRKGAVSELEHVPDTVLCDVHSHDGVVIAGYTSGDVRVWDTRTWDYVAPFLESEDEEDEPGMQPNVSFVRINSSLAVAAYEDGFLNIWDLRTGKYPVHRFEHDARIQALALSQDDATVATASAFDVVMLSPNEEGYWQIAAEFEVPKLVQYLEIVPETRRYPVAVAAAGDLMYLLKAEDSARTILYAHGPPVTCLDVSANQVAFGVQGLGWVYEGSKILVYSLEAGRRLLKLGNVLRDFTCVNLSDSPPNLMVSGNMDGRVRIHDLRSGNIALSLSAHQLRVSAVQMDDWKIVSGGEEGLVSVWDYRMNQKLWEVYSGHPVQHISFSSHSLITANVPYQTVMRNADLDSFTTHRRHRGLIRAYEFAVDQLAFQSPLPVCRSSCDAMATHYYDLALAFPYNHV
  protein production: failed

## MDEADSGGIVTARNVDLSSCDRELVQYPEAIQPHGAMLTVDEQSDRVLHASANCAAFIGKPPEAVIGAPIAAVLGAGWHELLGSLHRMPLDSGPVNIARESFLGSDQGWHLFAHRCGGLIILEFEKAEPEAAGTTSNLYSEVRADLAALQATEGVQAFFDLAVERIRAFTGYDRVMAYRFAEDGSGQVIAEARRDDLEPYLGLHYPATDIPAPARRLFALSWVRHLPDVGYTPVPLLAAKSPLVTGPVDMSFASLRSVSVMYTGYLKNMGVQSTLVMPLVKEGRLWGLISAMHHAAPRHISHQMRMAAEFLAHTLSLLMSAKEDAEQFERSSARKAAAEALTRLLDSEADIGAALHAAGALDLLSALIDAGGVVVQTGDEVATRGEAPAAAPLHELTSWLRERARPVFATDRLPNLDPAAQAVASQASGVLALRPLPDQPMLIAWLRPEQIEDVQWAGDPRKPVEISDADGMQRLRPRNSFALWKESVQGRAVPWRDDEKDAATRLAAAIAEIAAARKGRIERINRALDASHSELSRYTDVASAELKEHLRGIHHLTTSLRRRQGEVLDEEGRQQVATILKLTQRMDALVDALLDRSRGGSEAASETVDLEAVVDDALAPFARRIAEDRIEVRRPMRLGTAQGHREWIGEVFTNLIGNAIRYNDKPERWIEIGVEAGSPPRYYVRDNGIGIADTDQQLVFQMFHRVDQSEQKAEGAGVGLAMTRRIVAHHGGRIWVQSRLGEGATFYFTLAPDEERHDA
  protein production: failed

## MDEIDLRILKILQYNAKYSLDEIAREIRIPKSTLSYRIKKLEKDGVIKGYYAYINPASLNLDYIVITSVKAKYGKNYHVELGNKLAQIPGVWGVYFVLGDNDFIVMARYKTREEFMEKFLERVMSIPEVERTSTQVVVKIIKESPNIVIF
  protein production: not failed

## MDEIESLIGLRPTPLTWPVVIAGDFLGVWDPPPSLPGAANHEISAPTARISCMLIERRDAAARLRRALHRAPVVLLTGPRQAGKTTLSRLVGKSAPECTFDAENPVDATRLADPMLALSGLSGLITIDEAQRIPDLFPVLRVLVDRPVMPARFLILGSASPDLVGLASESLAGRVELVELSGLTVRDVGSSAADRLWLRGGLPPSFTARSNEDSAAWRDGYITTFLERDLAQLGVRIPAATMRRAWTMLAHYHGQLFSGAELARSLDVAQTTARRYLDALTDALVVRQLTPWFANIGKRQRRSPKIYIRDTGLLHRLLGIDDRLALERNPKLGASWEGFVLEQLAALLAPNPLYYWRTQQDAELDLYVELSGRPYGFEIKRTSTPSISRSMRSALVDLQLARLAIVYPGEHRFPLSDTVVAVPADQILTTGSVDELLALLK
  protein production: failed

## MDEKPAITKIISGGQTGADRAALDFAIKHHIPYGGWVPKGRLAEGGRVPETYQLQEMPTSDYSKRTEKNVLDSDGTLIISHGILKGGSALTEFFAEQYKKPCLHIDLDRISIEDAATLINSWTVSHHIQVLNIAGPRAGKDPEIYQATMDLLEVFLA
  protein production: not failed
